Reference: US20250171562A1

B1: NIgG4E3A1(G4S)2 (Fc fusion)
chain 1: DVQLQESGGGLVQAGGSLRLACAASGRTLSSYVVSWFRQAPGKERKFVAAITWSGLSTTYLDSVQGRFTISRDNTKDTVYLQMNSLKPQDTAIYYCAAGPNIPSILRTRESEYAYWGQGTQVTVSGGGGSGGGGSGPPCPPCPAPEFLGGPSVFLFPPKPKDTLMISRTPEVTCVVVDVSQEDPEVQFNWYVDGVEVHNAKTKPREEQFNSTYRVVSVLTVLHQDWLNGKEYKCKVSNKGLPSSIEKTISKAKGQPREPQVYTLPPCQEEMTKNQVSLWCLVKGFYPSDIAVEWESNGQPENNYKTTPPVLDSDGSFFLYSRLTVDKSRWQEGNVFSCSVMHEALHNHYTQKSLSLSLGK
chain 2: EVQLLESGGGLVQPGGSLRLSCAASGFTFGNYDMAWVRQAPGKRPEWVSSIDTGGDITHYADSVKGRFTISRDNAKNTLYLQMNSLRPEDTAVYWCATDEEYALGPNEFDYYGQGTLVTVSSGGGGSGGGGSGPPCPPCPAPEFLGGPSVFLFPPKPKDTLMISRTPEVTCVVVDVSQEDPEVQFNWYVDGVEVHNAKTKPREEQFNSTYRVVSVLTVLHQDWLNGKEYKCKVSNKGLPSSIEKTISKAKGQPREPQVCTLPPSQEEMTKNQVSLSCAVKGFYPSDIAVEWESNGQPENNYKTTPPVLDSDGSFFLVSRLTVDKSRWQEGNVFSCSVMHEALHNHYTQKSLSLSLGK
B2: CIgG4E2A1(G4S)3 (Fc fusion)
chain 1: GPPCPPCPAPEFLGGPSVFLFPPKPKDTLMISRTPEVTCVVVDVSQEDPEVQFNWYVDGVEVHNAKTKPREEQFNSTYRVVSVLTVLHQDWLNGKEYKCKVSNKGLPSSIEKTISKAKGQPREPQVYTLPPCQEEMTKNQVSLWCLVKGFYPSDIAVEWESNGQPENNYKTTPPVLDSDGSFFLYSRLTVDKSRWQEGNVFSCSVMHEALHNHYTQKSLSLSLGKGGGGSGGGGSGGGGSDVQLQESGGGLVQAGGSLRLSCAASGRTISRYAVGWFRRPPAKEREFIGINWSGGSTTYADSAEGRFIISRDNAKNTVYLQMNSLKPEDTAVYYCAVPSVLVQGGISNPSQYDYWGQGTQVTVS
chain 2: GPPCPPCPAPEFLGGPSVFLFPPKPKDTLMISRTPEVTCVVVDVSQEDPEVQFNWYVDGVEVHNAKTKPREEQFNSTYRVVSVLTVLHQDWLNGKEYKCKVSNKGLPSSIEKTISKAKGQPREPQVCTLPPSQEEMTKNQVSLSCAVKGFYPSDIAVEWESNGQPENNYKTTPPVLDSDGSFFLVSRLTVDKSRWQEGNVFSCSVMHEALHNHYTQKSLSLSLGKGGGGSGGGGSGGGGSEVQLLESGGGLVQPGGSLRLSCAASGFTFGNYDMAWVRQAPGKRPEWVSSIDTGGDITHYADSVKGRFTISRDNAKNTLYLQMNSLRPEDTAVYWCATDEEYALGPNEFDYYGQGTLVTVSS
B3: NIgG4E3A1(RS) (Fc fusion)
chain 1: DVQLQESGGGLVQAGGSLRLACAASGRTLSSYVVSWFRQAPGKERKFVAAITWSGLSTTYLDSVQGRFTISRDNTKDTVYLQMNSLKPQDTAIYYCAAGPNIPSILRTRESEYAYWGQGTQVTVSRSGPPCPPCPAPEFLGGPSVFLFPPKPKDTLMISRTPEVTCVVVDVSQEDPEVQFNWYVDGVEVHNAKTKPREEQFNSTYRVVSVLTVLHQDWLNGKEYKCKVSNKGLPSSIEKTISKAKGQPREPQVYTLPPCQEEMTKNQVSLWCLVKGFYPSDIAVEWESNGQPENNYKTTPPVLDSDGSFFLYSRLTVDKSRWQEGNVFSCSVMHEALHNHYTQKSLSLSLGK
chain 2: EVQLLESGGGLVQPGGSLRLSCAASGFTFGNYDMAWVRQAPGKRPEWVSSIDTGGDITHYADSVKGRFTISRDNAKNTLYLQMNSLRPEDTAVYWCATDEEYALGPNEFDYYGQGTLVTVSSRSGPPCPPCPAPEFLGGPSVFLFPPKPKDTLMISRTPEVTCVVVDVSQEDPEVQFNWYVDGVEVHNAKTKPREEQFNSTYRVVSVLTVLHQDWLNGKEYKCKVSNKGLPSSIEKTISKAKGQPREPQVCTLPPSQEEMTKNQVSLSCAVKGFYPSDIAVEWESNGQPENNYKTTPPVLDSDGSFFLVSRLTVDKSRWQEGNVFSCSVMHEALHNHYTQKSLSLSLGK
B4: CIgG4E2A1(G4S)1 (Fc fusion)
chain 1: GPPCPPCPAPEFLGGPSVFLFPPKPKDTLMISRTPEVTCVVVDVSQEDPEVQFNWYVDGVEVHNAKTKPREEQFNSTYRVVSVLTVLHQDWLNGKEYKCKVSNKGLPSSIEKTISKAKGQPREPQVYTLPPCQEEMTKNQVSLWCLVKGFYPSDIAVEWESNGQPENNYKTTPPVLDSDGSFFLYSRLTVDKSRWQEGNVFSCSVMHEALHNHYTQKSLSLSLGKGGGGSDVQLQESGGGLVQAGGSLRLSCAASGRTISRYAVGWFRRPPAKEREFIGINWSGGSTTYADSAEGRFIISRDNAKNTVYLQMNSLKPEDTAVYYCAVPSVLVQGGISNPSQYDYWGQGTQVTVS
chain 2: GPPCPPCPAPEFLGGPSVFLFPPKPKDTLMISRTPEVTCVVVDVSQEDPEVQFNWYVDGVEVHNAKTKPREEQFNSTYRVVSVLTVLHQDWLNGKEYKCKVSNKGLPSSIEKTISKAKGQPREPQVCTLPPSQEEMTKNQVSLSCAVKGFYPSDIAVEWESNGQPENNYKTTPPVLDSDGSFFLVSRLTVDKSRWQEGNVFSCSVMHEALHNHYTQKSLSLSLGKGGGGSEVQLLESGGGLVQPGGSLRLSCAASGFTFGNYDMAWVRQAPGKRPEWVSSIDTGGDITHYADSVKGRFTISRDNAKNTLYLQMNSLRPEDTAVYWCATDEEYALGPNEFDYYGQGTLVTVSS
B5: CIgG4E2A1(G4S)2 (Fc fusion)
chain 1: GPPCPPCPAPEFLGGPSVFLFPPKPKDTLMISRTPEVTCVVVDVSQEDPEVQFNWYVDGVEVHNAKTKPREEQFNSTYRVVSVLTVLHQDWLNGKEYKCKVSNKGLPSSIEKTISKAKGQPREPQVYTLPPCQEEMTKNQVSLWCLVKGFYPSDIAVEWESNGQPENNYKTTPPVLDSDGSFFLYSRLTVDKSRWQEGNVFSCSVMHEALHNHYTQKSLSLSLGKGGGGSGGGGSDVQLQESGGGLVQAGGSLRLSCAASGRTISRYAVGWFRRPPAKEREFIGINWSGGSTTYADSAEGRFIISRDNAKNTVYLQMNSLKPEDTAVYYCAVPSVLVQGGISNPSQYDYWGQGTQVTVS
chain 2: GPPCPPCPAPEFLGGPSVFLFPPKPKDTLMISRTPEVTCVVVDVSQEDPEVQFNWYVDGVEVHNAKTKPREEQFNSTYRVVSVLTVLHQDWLNGKEYKCKVSNKGLPSSIEKTISKAKGQPREPQVCTLPPSQEEMTKNQVSLSCAVKGFYPSDIAVEWESNGQPENNYKTTPPVLDSDGSFFLVSRLTVDKSRWQEGNVFSCSVMHEALHNHYTQKSLSLSLGKGGGGSGGGGSEVQLLESGGGLVQPGGSLRLSCAASGFTFGNYDMAWVRQAPGKRPEWVSSIDTGGDITHYADSVKGRFTISRDNAKNTLYLQMNSLRPEDTAVYWCATDEEYALGPNEFDYYGQGTLVTVSS
B6: NIgG4E3A1(G4S)1 (Fc fusion)
chain 1: DVQLQESGGGLVQAGGSLRLACAASGRTLSSYVVSWFRQAPGKERKFVAAITWSGLSTTYLDSVQGRFTISRDNTKDTVYLQMNSLKPQDTAIYYCAAGPNIPSILRTRESEYAYWGQGTQVTVSGGGGSGPPCPPCPAPEFLGGPSVFLFPPKPKDTLMISRTPEVTCVVVDVSQEDPEVQFNWYVDGVEVHNAKTKPREEQFNSTYRVVSVLTVLHQDWLNGKEYKCKVSNKGLPSSIEKTISKAKGQPREPQVYTLPPCQEEMTKNQVSLWCLVKGFYPSDIAVEWESNGQPENNYKTTPPVLDSDGSFFLYSRLTVDKSRWQEGNVFSCSVMHEALHNHYTQKSLSLSLGK
chain 2: EVQLLESGGGLVQPGGSLRLSCAASGFTFGNYDMAWVRQAPGKRPEWVSSIDTGGDITHYADSVKGRFTISRDNAKNTLYLQMNSLRPEDTAVYWCATDEEYALGPNEFDYYGQGTLVTVSSGGGGSGPPCPPCPAPEFLGGPSVFLFPPKPKDTLMISRTPEVTCVVVDVSQEDPEVQFNWYVDGVEVHNAKTKPREEQFNSTYRVVSVLTVLHQDWLNGKEYKCKVSNKGLPSSIEKTISKAKGQPREPQVCTLPPSQEEMTKNQVSLSCAVKGFYPSDIAVEWESNGQPENNYKTTPPVLDSDGSFFLVSRLTVDKSRWQEGNVFSCSVMHEALHNHYTQKSLSLSLGK

Molecular target: mixture of three Der p 2 specific recombinant human IgE clones H10, H12, P4E (human) (UniProt P01854)
Assay: RBL-SX38 IgE displacement, FACS

Sequence of mixture of three Der p 2 specific recombinant human IgE clones H10, H12, P4E (human) (P01854 other isoform, or with tags, fused parts or gaps): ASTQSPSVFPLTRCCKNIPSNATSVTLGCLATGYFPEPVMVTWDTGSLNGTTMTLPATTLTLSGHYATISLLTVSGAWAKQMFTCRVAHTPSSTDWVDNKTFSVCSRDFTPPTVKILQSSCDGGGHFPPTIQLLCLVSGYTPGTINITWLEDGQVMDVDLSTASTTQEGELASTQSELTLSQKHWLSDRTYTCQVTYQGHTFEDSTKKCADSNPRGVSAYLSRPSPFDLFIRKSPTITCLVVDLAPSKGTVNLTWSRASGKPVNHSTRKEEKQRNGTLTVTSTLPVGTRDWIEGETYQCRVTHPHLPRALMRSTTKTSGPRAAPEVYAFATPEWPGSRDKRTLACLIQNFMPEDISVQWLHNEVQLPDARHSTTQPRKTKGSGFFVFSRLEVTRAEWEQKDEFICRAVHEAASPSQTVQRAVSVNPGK

Binder | EC50 [nM] | Max effect/effect 1 µM [%]
B1 | 2.1 | 99
B2 | 532 | 45
B3 | 2.2 | 100
B4 |  | 22
B5 | 572 | 45
B6 | 2 | 99
